Literature values, collected in patent US20200069786A1, “COMPOSITION AND PROCESS FOR PREPARING VACCINE” (TREOS BIO ZRT., priority 2018, published 2020).

B1: SLCO6A1 (protein, UniProt Q86UG4 1-719, looked up)
Solute carrier organic anion …: MFVGVARHSGSQDEVSRGVEPLEAARAQPAKDRRAKGTPKSSKPGKKHRYLRLLPEALIRFGGFRKRKKAKSSVSKKPGEVDDSLEQPCGLGCLVSTCCECCNNIRCFMIFYCILLICQGVVFGLIDVSIGDFQKEYQLKTIEKLALEKSYDISSGLVAIFIAFYGDRKKVIWFVASSFLIGLGSLLCAFPSINEENKQSKVGIEDICEEIKVVSGCQSSGISFQSKYLSFFILGQTVQGIAGMPLYILGITFIDENVATHSAGIYLGIAECTSMIGYALGYVLGAPLVKVPENTTSATNTTVNNGSPEWLWTWWINFLFAAVVAWCTLIPLSCFPNNMPGSTRIKARKRKQLHFFDSRLKDLKLGTNIKDLCAALWILMKNPVLICLALSKATEYLVIIGASEFLPIYLENQFILTPTVATTLAGLVLIPGGALGQLLGGVIVSTLEMSCKALMRFIMVTSVISLILLVFIIFVRCNPVQFAGINEDYDGTGKLGNLTAPCNEKCRCSSSIYSSICGRDDIEYFSPCFAGCTYSKAQNQKKMYYNCSCIKEGLITADAEGDFIDARPGKCDAKCYKLPLFIAFIFSTLIFSGFSGVPIVLAMTRVVPDKLRSLALGVSYVILRIFGTIPGPSIFKMSGETSCILRDVNKCGHTGRCWIYNKTKMAFLLVGICFLCKLCTIIFTTIAFFIYKRRLNENTDFPDVTVKNPKVKKKEETDL
B2: FAM46D (protein, UniProt Q8NEK8 1-389, looked up)
Terminal …: MSEIRFTNLTWDQVITLDQVLDEVIPIHGKGNFPTMEVKPKDIIHVVKDQLIGQGIIVKDARLNGSVASYILASHNGISYKDLDVIFGVELPGNEEFQVVKDAVLDCLLDFLPKDVKKEKLSPDIMKDAYVQKLVKVCNGHDCWSLISLSNNTGKNLELKFVSSLRRQFEFSVDSFQIVLDPMLDFYSDKNAKLTKESYPVVVAESMYGDFQEAMTHLQHKLICTRKPEEIRGGGLLKYCSLLVHGFKPACMSEIKNLERYMCSRFFIDFPHIEEQQKKIESYLHNHFIGEGMTKYDYLMTLHGVVNESTVCLMSYERRQILHLITMMALKVLGELNILPNTQKVTCFYQPAPYFAAEARYPIYVIPEPPPVSFQPYHPLHFRGSNGMS
B3: MAGE-B6 (protein, UniProt Q8N7X4 1-407, looked up)
Melanoma-associated antigen B6: MPRGHKSKLRTCEKRQETNGQPQGLTGPQATAEKQEESHSSSSSSRACLGDCRRSSDASIPQESQGVSPTGSPDAVVSYSKSDVAANGQDEKSPSTSRDASVPQESQGASPTGSPDAGVSGSKYDVAANGQDEKSPSTSHDVSVPQESQGASPTGSPDAGVSGSKYDVAAEGEDEESVSASQKAIIFKRLSKDAVKKKACTLAQFLQKKFEKKESILKADMLKCVRREYKPYFPQILNRTSQHLVVAFGVELKEMDSSGESYTLVSKLGLPSEGILSGDNALPKSGLLMSLLVVIFMNGNCATEEEVWEFLGLLGIYDGILHSIYGDARKIITEDLVQDKYVVYRQVCNSDPPCYEFLWGPRAYAETTKMRVLRVLADSSNTSPGLYPHLYEDALIDEVERALRLRA
B4: TRAG-3 (protein, UniProt Q9Y5P2 1-127, looked up)
Chondrosarcoma-associated …: MWMGLIQLVEGVKRKDQGFLEKEFYHKTNIKMRCEFLACWPAFTVLGEAWRDQVDWSRLLRDAGLVKMSRKPRASSPLSNNHPPTPKRRGSGRHPLNPGPEALSKFPRQPGREKGPIKEVPGTKGSP
B5: PASD1 (protein, UniProt Q8IV76 1-773, looked up)
Circadian clock protein PASD1: MKMRGEKRRDKVNPKSSQRKLNWIPSFPTYDYFNQVTLQLLDGFMITLSTDGVIICVAENISSLLGHLPAEIVGKKLLSLLPDEEKDEVYQKIILKFPLLNSETHIEFCCHLKRGNVEHGDSSAYENVKFIVNVRDICNEFPVVFSGLFSSHLCADFAACVPQEDRLYLVGNVCILRTQLLQQLYTSKAVSDEAVLTQDSDEEPFVGELSSSQGQRGHTSMKAVYVEPAAAAAAAAISDDQIDIAEVEQYGPQENVHMFVDSDSTYCSSTVFLDTMPESPALSLQDFRGEPEVNPLYRADPVDLEFSVDQVDSVDQEGPMDQQDPENPVAPLDQAGLMDPVDPEDSVDLGAAGASAQPLQPSSPVAYDIISQELELMKKLKEQLEERTWLLHDAIQNQQNALELMMDHLQKQPNTLRHVVIPDLQSSEAVPKKQQKQHAGQVKRPLPHPKDVKCFCGLSLSNSLKNTGELQEPCVAFNQQQLVQQEQHLKEQQRQLREQLQQLREQRKVQKQKKMQEKKKLQEQKMQEKKKLQEQRRQKKKKLQERKKWQGQMLQKEPEEEQQKQQLQEQPLKHNVIVGNERVQICLQNPRDVSVPLCNHPVRFLQAQPIVPVQRAAEQQPSGFYQDENCGQQEDESQSFYPEAYQGPPVNQLPLIDTSNSEAISSSSIPQFPITSDSTISTLETPQDYIRLWQELSDSLGPVVQVNTWSCDEQGTLHGQPTYHQVQVSEVGVEGPPDPQAFQGPAAYQPDQMRSAEQTRLMPAEQRDSNKPC
B6: NXF2 (protein, UniProt Q9GZY0 1-626, looked up)
Nuclear RNA export factor 2: MCSTLKKCGTYRTEVAECHDHGSTFQGRKKGGSSFRDNFDKRSCHYEHGGYERPPSHCQENDGSVEMRDVHKDQQLRHTPYSIRCERRMKWHSEDEIRITTWRNRKPPERKMSQNTQDGYTRNWFKVTIPYGIKYDKAWLMNSIQSHCSDRFTPVDFHYVRNRACFFVQDASAASALKDVSYKIYDDENQKICIFVNHSTAPYSVKNKLKPGQMEMLKLTMNKRYNVSQQALDLQNLRFDPDLMGRDIDIILNRRNCMAATLKIIERNFPELLSLNLCNNKLYQLDGLSDITEKAPKVKTLNLSKNKLESAWELGKVKGLKLEELWLEGNPLCSTFSDQSAYVSAIRDCFPKLLRLDGRELSAPVIVDIDSSETMKPCKENFTGSETLKHLVLQFLQQYYSIYDSGDRQGLLGAYHDEACFSLAIPFDPKDSAPSSLCKYFEDSRNMKTLKDPYLKGELLRRTKRDIVDSLSALPKTQHDLSSILVDVWCQTERMLCFSVNGVFKEVEGQSQGSVLAFTRTFIATPGSSSSLCIVNDELFVRDASPQETQSAFSIPVSTLSSSSEPSLSQEQQEMVQAFSAQSGMKLEWSQKCLQDNEWNYTRAGQAFTMLQTEGKIPAEAFKQIS
B7: SP17 (protein, UniProt Q15506 1-151, looked up)
Sperm surface protein Sp17: MSIPFSNTHYRIPQGFGNLLEGLTREILREQPDNIPAFAAAYFESLLEKREKTNFDPAEWGSKVEDRFYNNHAFEEQEPPEKSDPKQEESQISGKEEETSVTILDSSEEDKEKEEVAAVKIQAAFRGHIAREEAKKMKTNSLQNEEKEENK
B8: TPTE (protein, UniProt P56180 1-551, looked up)
Putative tyrosine-protein …: MNESPDPTDLAGVIIELGPNDSPQTSEFKGATEEAPAKESPHTSEFKGAARVSPISESVLARLSKFEVEDAENVASYDSKIKKIVHSIVSSFAFGLFGVFLVLLDVTLILADLIFTDSKLYIPLEYRSISLAIALFFLMDVLLRVFVERRQQYFSDLFNILDTAIIVILLLVDVVYIFFDIKLLRNIPRWTHLLRLLRLIILLRIFHLFHQKRQLEKLIRRRVSENKRRYTRDGFDLDLTYVTERIIAMSFPSSGRQSFYRNPIKEVVRFLDKKHRNHYRVYNLCSERAYDPKHFHNRVVRIMIDDHNVPTLHQMVVFTKEVNEWMAQDLENIVAIHCKGGTDRTGTMVCAFLIASEICSTAKESLYYFGERRTDKTHSEKFQGVKTPSQKRYVAYFAQVKHLYNWNLPPRRILFIKHFIIYSIPRYVRDLKIQIEMEKKVVFSTISLGKCSVLDNITTDKILIDVFDGLPLYDDVKVQFFYSNLPTYYDNCSFYFWLHTSFIENNRLYLPKNELDNLHKQKARRIYPSDFAVEILFGEKMTSSDVVAGSD
B9: HAGE (protein, UniProt Q9NXZ2 1-648, looked up)
Probable ATP-dependent RNA …: MSHHGGAPKASTWVVASRRSSTVSRAPERRPAEELNRTGPEGYSVGRGGRWRGTSRPPEAVAAGHEELPLCFALKSHFVGAVIGRGGSKIKNIQSTTNTTIQIIQEQPESLVKIFGSKAMQTKAKAVIDNFVKKLEENYNSECGIDTAFQPSVGKDGSTDNNVVAGDRPLIDWDQIREEGLKWQKTKWADLPPIKKNFYKESTATSAMSKVEADSWRKENFNITWDDLKDGEKRPIPNPTCTFDDAFQCYPEVMENIKKAGFQKPTPIQSQAWPIVLQGIDLIGVAQTGTGKTLCYLMPGFIHLVLQPSLKGQRNRPGMLVLTPTRELALQVEGECCKYSYKGLRSVCVYGGGNRDEQIEELKKGVDIIIATPGRLNDLQMSNFVNLKNITYLVLDEADKMLDMGFEPQIMKILLDVRPDRQTVMTSATWPHSVHRLAQSYLKEPMIVYVGTLDLVAVSSVKQNIIVTTEEEKWSHMQTFLQSMSSTDKVIVFVSRKAVADHLSSDLILGNISVESLHGDREQRDREKALENFKTGKVRILIATDLASRGLDVHDVTHVYNFDFPRNIEEYVHRIGRTGRAGRTGVSITTLTRNDWRVASELINILERANQSIPEELVSMAERFKAHQQKREMERKMERPQGRPKKFH

Test system: TSA
Details: BRAIN

Row | Molecule | TSA Expression Rate (ER) [%]
1 | B1 | 19
2 | B2 | 8
3 | B3 | 6
4 | B4 | 0
5 | B5 | 31
6 | B6 | 18
7 | B7 | 13
8 | B8 | 0
9 | B9 | 38

Same assay, conditions: BREAST

Row | Molecule | TSA Expression Rate (ER) [%]
10 | B1 | 7
11 | B4 | 10
12 | B6 | 2
13 | B7 | 47
14 | B9 | 14

Same assay, conditions: HCC

Row | Molecule | TSA Expression Rate (ER) [%]
15 | B4 | 26
16 | B7 | 87
17 | B8 | 39

Same assay, conditions: LUNG

Row | Molecule | TSA Expression Rate (ER) [%]
18 | B2 | 50
19 | B4 | 54
20 | B5 | 29
21 | B8 | 36
22 | B9 | 32

Same assay, conditions: OVARIAN

Row | Molecule | TSA Expression Rate (ER) [%]
23 | B4 | 83
24 | B7 | 62

Same assay, conditions: THYROID

Row | Molecule | TSA Expression Rate (ER) [%]
25 | B2 | 8
26 | B5 | 25
27 | B6 | 20
28 | B7 | 10
29 | B9 | 20

Same assay, conditions: TSA expression rate in BLADDER cancer

Row | Molecule | Expression Rate (ER) % [%]
30 | B6 | 19
31 | B9 | 24

Same assay, conditions: TSA expression rate in CRC

Row | Molecule | Expression Rate (ER) % [%]
32 | B2 | 22
33 | B4 | 7
34 | B5 | 44
35 | B6 | 9
36 | B8 | 4
37 | B9 | 15

Same assay, conditions: TSA expression rate in Cervical cancer

Row | Molecule | Expression Rate (ER) % [%]
38 | B2 | 37
39 | B5 | 58
40 | B7 | 61

Same assay, conditions: TSA expression rate in Esophageal

Row | Molecule | Expression Rate (ER) % [%]
41 | B1 | 33
42 | B4 | 55
43 | B6 | 17
44 | B7 | 81
45 | B9 | 27

Same assay, conditions: TSA expression rate in GASTRIC cancer

Row | Molecule | Expression Rate (ER) % [%]
46 | B2 | 11
47 | B4 | 10
48 | B5 | 44
49 | B6 | 6
50 | B8 | 0

Same assay, conditions: TSA expression rate in HEAD and NECK

Row | Molecule | Expression Rate (ER) % [%]
51 | B6 | 5
52 | B8 | 0
53 | B9 | 20

Same assay, conditions: TSA expression rate in Kidney

Row | Molecule | Expression Rate (ER) % [%]
54 | B6 | 0
55 | B9 | 6

Same assay, conditions: TSA expression rate in LUNG cancer

Row | Molecule | Expression Rate (ER) % [%]
56 | B1 | 7
57 | B6 | 15
58 | B7 | 12

Same assay, conditions: TSA expression rate in MELANOMA

Row | Molecule | Expression Rate (ER) % [%]
59 | B2 | 28
60 | B5 | 44
61 | B6 | 8
62 | B9 | 17

Same assay, conditions: TSA expression rate in PROSTATE cancer

Row | Molecule | Expression Rate (ER) % [%]
63 | B2 | 33
64 | B5 | 29
65 | B6 | 14
66 | B7 | 10
67 | B9 | 22
